Measured values from PMC7286605.
Several values for one entry are separate records, joined by “and”; a condition that tells them apart may be missing. Equal values may be shown once.

Experiments:
[1] = target: water-soluble variant of the μ-opioid receptor (wsMOR) (UniProt P35372); assay: photonic crystal Fano resonance shift
[2] = target: water-soluble variant of the μ-opioid receptor (wsMOR) (UniProt P35372); assay: MoS2 field-effect transistor biosensor

- EC50 [1]: 1 nM and 1.2 nM
- Kd [1]: 2.5 nM
- EC50 [2]: 1.2 nM and 1.5 nM
- Kd [2]: 3.6 nM
Substance: DAMGO ([D-Ala2, N-MePhe4, Gly-ol]-enkephalin) (peptide)
